Numbering of substitutions follows the chain as printed.
B1: canine 2166 chimeric antibody (antibody, V domains shown)
VH: QVQLKESGPGLVQPSQTLSLTCTVSGLSLTSNSVSWIRQPPGKGLEWMGVIWSNGGTDYNSAIESRLSINRDTSKSQVFLKMNSLQPEDTAMYFCASIYYYDADYLHWYFDFWGPGTMVTVSS
VL: DIQMTQSPASLSASLGETVSIECLASEGISNSLAWYQLKPGKSPQFLIYATSSLQDGVPSRFSGSGSGTQYSLKISGMQPEDEGVYYCQQGYKFPLTFGSGTKLKIKR
notes: also called canine chimeric antibody
B2: SC-184_76 (antibody, from a related filing, V domains shown)
VH: DVQLVESGGDLVKPGGSLRLTCVASGLSLTSDSMSWVRQAPGKGLQWVSTLWSNGGTYYTDSVKGRFTISKDNAENTLYLQMNNLKTEDTATYYCASIYYYEADYLHWYFDFWGQGALVTVSS
VL: EIQMTQSPTSLSASVGDRVTITCRASEGIANNLSWYQQTPGKAPKLLIYATSNLHSGVPSRFSGSGSGTDFTLTISSLQPEDFATYYCQQGFKWPLTFGGGTKLEIT
B3: SC-184_110 (antibody, from a related filing, IgG1a, V domains shown)
VH: B2 VH with D32A, L51I, W52Y, D104E
VL: B2 VL with A30S, N31K, S52D, F92W
B4: SC-184_110-Arg (antibody, V domains shown)
VH: B2 VH with D32A, L51I, W52Y, G55R, D104E
VL: B2 VL with A30S, N31K, S52D, F92W
B5: felinized clone 101 (antibody, V domains shown)
VH: B2 VH with D32S, L51I, W52Y, E102D
VL: B2 VL with A30S, F92Y
B6: SC-184_76-Arg (antibody, V domains shown)
VH: B2 VH with G55R
VL: B2 VL
B7: AHF17602 (antibody, V domains shown)
VH: B2 VH with D32S, S35V, L51I, W52Y, G55R, E102D
VL: B2 VL with F92Y

What was measured:
[1] = target: T1, canine NGF tagged at the C-terminus with the Flag tag (canine, UniProt A0A8I3PYI3 122-241); test: SPR Biacore T200; antibody captured on protein A chip, NGF analyte
T1 construct: Baculovirus expression
T1 sequence (A0A8I3PYI3 entry or part of it): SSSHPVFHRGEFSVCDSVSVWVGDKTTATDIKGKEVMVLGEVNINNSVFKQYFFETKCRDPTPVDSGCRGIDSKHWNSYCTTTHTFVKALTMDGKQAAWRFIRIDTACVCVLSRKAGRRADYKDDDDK
Method: The running buffer was HBS-EP buffer (10 mM HEPES, pH 7.4, 150 mM NaCl, 3 mM EDTA, 0.005% tween 20) and the instrument temperature was set at 25 °C. […] The binding signals were corrected for the blank and the resulting sensorgram (FIG. 5) was used to determine the rate constants (kₐ and kd) and binding affinity (KD) using a one-to-one binding model with the BIAEVAL software.

[2] = target: canine NGF tagged at the C-terminus with the Flag tag (canine); test: SPR, Biacore T200; antibody captured on anti-feline CM5 chip, NGF analyte, 1:1 fit
[3] = target: T2, canine NGF tagged at the C-terminus with the Flag tag (canine, UniProt A0A8I3PYI3 122-241); test: SPR competition; Ab pre-incubated with 50 nM NGF at Ab to NGF ratio 1 to 1, injected over captured feline p75 (competitor)
T2 construct: mature; also called feline NGF (processed form identical)
T2 sequence (A0A8I3PYI3 entry or part of it): as above

[4] = target: T2, canine NGF tagged at the C-terminus …; test: SPR competition; Ab pre-incubated with 50 nM NGF at Ab to NGF ratio 5 to 1, injected over captured feline p75 (competitor)
[5] = target: T2, canine NGF tagged at the C-terminus …; test: SPR competition; Ab pre-incubated with 10 nM NGF at Ab to NGF ratio 10 to 1, injected over captured feline TrkA (competitor)
[6] = target: T2, canine NGF tagged at the C-terminus …; test: SPR competition; Ab pre-incubated with 10 nM NGF at Ab to NGF ratio 50 to 1, injected over captured feline TrkA (competitor)

Chain of canine NGF tagged at the C-terminus with the Flag tag (canine) (chain, as listed by the source): as the sequence (A0A8I3PYI3 entry or part of it) above

| Binder | koff [1] [s⁻¹] | Kd [2] [nM] | koff [2] [s⁻¹] | kon [2] [M⁻¹ s⁻¹] | % Block [3] [%] | % Block [4] [%] | % Block [5] [%] | % Block [6] [%] |
| --- | --- | --- | --- | --- | --- | --- | --- | --- |
| B1 | 3.5e-06 | – | – | – | – | – | – | – |
| B2 | – | 0.472 | 0.000396 | 838000 | – | – | – | – |
| B3 | – | 0.773 | 0.00038 | 492000 | – | – | – | – |
| B4 | – | – | – | – | 100 | 100 | 100 | 100 |
| B5 | – | – | – | – | 42 | 87 | 15 | 76 |
| B6 | – | – | – | – | 100 | 100 | 99 | 100 |
| B7 | – | – | – | – | 100 | 100 | 99 | 100 |
